Measurements reported in paper PMC9605868.

Biological target: AP-1σ1 (cells' own, or HA-AP1S1) (UniProt P61966)
Assay: anti-Flag IP, western blot for AP-1
Conditions: reference: wild type; sites S366

binding against the reference: weaker
Substance: STING (from UniProt Q86WV6) S366A
